Data as given in publication PMC9621426, “Characterization of a novel pyruvate kinase from Trichinella spiralis and its participation in sugar metabolism, larval molting and development” (PLOS Neglected Tropical Diseases, 2022).

How the values were obtained:
purified protein [1] = substrate: C=C(OP(=O)(O)O)C(=O)O; assay: purified protein; format: biochemical, Trichinella spiralis; conditions: co-substrate ADP, Tris-HCl pH 8.0, 37°C
purified protein [2] = substrate: Nc1ncnc2c1ncn2[C@@H]1O[C@H](COP(=O)(O)OP(=O)(O)O)[C@@H](O)[C@H]1O; assay: purified protein; format: biochemical, Trichinella spiralis; conditions: co-substrate PEP, Tris-HCl pH 8.0, 37°C

B1: rTsPKM (recombinant T. spiralis pyruvate kinase M) (Trichinella spiralis) (protein)
chain: MSEKQSQKSRKLAKVAAIPAKTTLEHLCRLDTDHSVEKLVSKTGLICTIGPASCSVETLTKMIQAGMTIARLNFSHGSHDYHAQTVANIRKAVDSLAASGNGKVVAIALDTKGPEIRTGYLAVGSNEEVVVEANSAVRVTVDSGMKFRCTESLIYVDYENMPKVVSKGSKIYIDDGLISLLVNEVADNHLDCVVEHGGKLGSCKGVNLPDCEVDLPAVSEKDAQDLQFAVKHQCDMVFASFVRSAEAVRQIRQTLGVEGRGIKIVAKIENRQGIANVDSIIEEADGVMIARGDLGIEIPAEQVFVAQKAIIAKCRLAGKPAICATQMLESMVDKARPTRAEITDVANAVLDGADCVMLSGETAKGRHPVQAVRTMHQICCQAESVFFQKHFFDELQAMLPRPMNAMDTIAFAVTTAAANCNASAIILLTNTGASAVALSKCRPSSMIISVVKKEQTARYLRLYSGILPCVYDSKNSSSSSPNAVVDWVTSVDQRINYAILFGKKERIIHDGDNVIVVNGWREGPGHTNTIRIFAVEPLIPRP
For B1, which Km (purified protein [1]) is on record?
The Km was 1510 µM.

And the Km (purified protein [2])?
The Km was 3330 µM.
